# Assay results published in patent US11325966.
# Tests used:
# Test in all cases: cell-based or functional assay
# [1] = target: HIV-1 envelope (Env) of pseudovirus Q769.d22 (HIV-1)
# [2] = target: HIV-1 envelope (Env) of pseudovirus WITO4160.33 (HIV-1)
# [3] = target: HIV-1 envelope (Env) of pseudovirus X1193_c1 (HIV-1)
# [4] = target: HIV-1 envelope (Env) of pseudovirus C2101.c01 (HIV-1)
# [5] = target: HIV-1 envelope (Env) of pseudovirus SC05_8C11_2344 (HIV-1)
# [6] = target: HIV-1 envelope (Env) of pseudovirus SC422661.8 (HIV-1)
# [7] = target: HIV-1 envelope (Env) of pseudovirus PVO.4 (HIV-1)
# [8] = target: HIV-1 envelope (Env) of pseudovirus ZM109F.PB4 (HIV-1)
# [9] = target: HIV-1 envelope (Env) of pseudovirus T278-50 (HIV-1)
# [10] = target: HIV-1 envelope (Env) of pseudovirus Q23.17 (HIV-1)
# [11] = target: HIV-1 envelope (Env) of pseudovirus 1054_07_TC4_1499 (HIV-1)
# [12] = target: HIV-1 envelope (Env) of pseudovirus 6041.v3.c23 (HIV-1)
# [13] = target: HIV-1 envelope (Env) of pseudovirus BJOX025000.01.1 (HIV-1)
# [14] = target: HIV-1 envelope (Env) of pseudovirus Ce2010_F5 (HIV-1)
# [15] = target: HIV-1 envelope (Env) of pseudovirus Ce0682_E4 (HIV-1)
# [16] = target: HIV-1 envelope (Env) of pseudovirus 6540.v4.c1 (HIV-1)
# [17] = target: HIV-1 envelope (Env) of pseudovirus R1166.c01 (HIV-1)
# [18] = target: HIV-1 Env of pseudovirus 7030102001E5 (Rev-) (HIV-1)
# [19] = target: HIV-1 YU2 Env N276D, on pseudovirus (HIV-1) (UniProt P35961)
# [20] = target: HIV-1 YU2 Env N160K, on pseudovirus (HIV-1) (UniProt P35961)
# [21] = target: BG505 (T332N) N339A (HIV-1)
# [22] = target: JR-CSF N295A (HIV-1) (UniProt P20871)
# [23] = target: HIV-1 Env of pseudovirus C1080.c03 (HIV-1)
# [24] = target: HIV-1 Env of pseudovirus Ce1172_H1 (HIV-1)
# [25] = target: HIV-1 Env of pseudovirus 6244_13_B5_4576 (HIV-1)
# [26] = target: HIV-1 Env of pseudovirus C3347.c11 (HIV-1)
# [27] = target: HIV-1 Env of pseudovirus 3415.v1.c1 (HIV-1)
# [28] = target: HIV-1 Env of pseudovirus R2184.c04 (HIV-1)
# [29] = target: HIV-1 Env of pseudovirus 246F C1G (HIV-1)
# [30] = target: HIV-1 Env of pseudovirus Ce2060_G9 (HIV-1)
# [31] = target: HIV-1 Env of pseudovirus P0402_c2_11 (HIV-1)
# [32] = target: HIV-1 Env of pseudovirus Q769.d22 (HIV-1)
# [33] = target: HIV-1 Env of pseudovirus 6952.v1.c20 (HIV-1)
# [34] = target: HIV-1 Env of pseudovirus CNE19 (HIV-1)
# [35] = target: HIV-1 Env of pseudovirus CNE52 (HIV-1)
# [36] = target: HIV-1 Env of pseudovirus X1193_c1 (HIV-1)
# [37] = target: HIV-1 Env of pseudovirus CNE21 (HIV-1)
# [38] = target: HIV-1 Env of pseudovirus 3103.v3.c10 (HIV-1)
# [39] = target: HIV-1 Env of pseudovirus 928-28 (HIV-1)
molecule,measurement,setting,value
BG1 (antibody),IC50 in TZM-bl assay,[1],> 30 µg/mL
same,IC80 in TZM-bl assay,[1],> 30 µg/mL
same,IC50 in TZM-bl assay,[2],0.002 µg/mL
same,IC80 in TZM-bl assay,[2],0.014 µg/mL
same,IC50 in TZM-bl assay,[3],0.138 µg/mL
same,IC80 in TZM-bl assay,[3],0.463 µg/mL
same,IC50 in TZM-bl assay,[4],> 30 µg/mL
same,IC80 in TZM-bl assay,[4],> 30 µg/mL
same,IC50 in TZM-bl assay,[5],> 30 µg/mL
same,IC80 in TZM-bl assay,[5],> 30 µg/mL
same,IC50 in TZM-bl assay,[6],> 30 µg/mL
same,IC80 in TZM-bl assay,[6],> 30 µg/mL
same,IC50 in TZM-bl assay,[7],> 30 µg/mL
same,IC80 in TZM-bl assay,[7],> 30 µg/mL
same,IC50 in TZM-bl assay,[8],> 30 µg/mL
same,IC80 in TZM-bl assay,[8],> 30 µg/mL
same,IC50 in TZM-bl assay,[9],19.3 µg/mL
same,IC80 in TZM-bl assay,[9],> 30 µg/mL
same,IC50 in TZM-bl assay,[10],0.008 µg/mL
same,IC80 in TZM-bl assay,[10],0.016 µg/mL
same,IC50 in TZM-bl assay,[11],> 30 µg/mL
same,IC80 in TZM-bl assay,[11],> 30 µg/mL
same,IC50 in TZM-bl assay,[12],6.75 µg/mL
same,IC80 in TZM-bl assay,[12],16.6 µg/mL
same,IC50 in TZM-bl assay,[13],> 30 µg/mL
same,IC80 in TZM-bl assay,[13],> 30 µg/mL
same,IC50 in TZM-bl assay,[14],> 30 µg/mL
same,IC80 in TZM-bl assay,[14],> 30 µg/mL
same,IC50 in TZM-bl assay,[15],> 30 µg/mL
same,IC80 in TZM-bl assay,[15],> 30 µg/mL
same,IC50 in TZM-bl assay,[16],> 30 µg/mL
same,IC80 in TZM-bl assay,[16],> 30 µg/mL
same,IC50 in TZM-bl assay,[17],> 30 µg/mL
same,IC80 in TZM-bl assay,[17],> 30 µg/mL
BG18 IgG (354BG18) (antibody),IC50 in TZM-bl assay,[18],0.002 µg/mL
same,IC80 in TZM-bl assay,[18],0.008 µg/mL
same,IC50 in TZM-bl assay,[19],0.012 µg/mL
same,IC80 in TZM-bl assay,[19],0.036 µg/mL
same,IC50 in TZM-bl assay,[20],0.028 µg/mL
same,IC80 in TZM-bl assay,[20],0.15 µg/mL
354BG8 (antibody),IC50 in TZM-bl assay,[21],0.007 µg/mL
same,IC50 in TZM-bl assay,[22],0.006 µg/mL
"10-1074 (antibody, V domains shown) VH: QVQLQESGPGLVKPSETLSVTCSVSGDSMNNYYWTWIRQSPGKGLEWIGYISDRESATYNPSLNSRVVISRDTSKNQLSLKLNSVTPADTAVYYCATARRGQRIYGVVSFGEFFYYYSMDVWGKGTTVTVSS VL: SYVRPLSVALGETARISCGRQALGSRAVQWYQHRPGQAPILLIYNNQDRPSGIPERFSGTPDINFGTRATLTISGVEAGDEADYYCHMWDSRSGFSWSFGGATRLTVL",IC50 in TZM-bl assay,[23],> 10 µg/mL
same,IC80 in TZM-bl assay,[23],> 10 µg/mL
same,IC50 in TZM-bl assay,[24],0.019 µg/mL
same,IC80 in TZM-bl assay,[24],0.083 µg/mL
same,IC50 in TZM-bl assay,[25],0.091 µg/mL
same,IC80 in TZM-bl assay,[25],0.38 µg/mL
same,IC50 in TZM-bl assay,[26],> 10 µg/mL
same,IC80 in TZM-bl assay,[26],> 10 µg/mL
same,IC50 in TZM-bl assay,[27],> 10 µg/mL
same,IC80 in TZM-bl assay,[27],> 10 µg/mL
same,IC50 in TZM-bl assay,[28],> 10 µg/mL
same,IC80 in TZM-bl assay,[28],> 10 µg/mL
same,IC50 in TZM-bl assay,[29],0.035 µg/mL
same,IC80 in TZM-bl assay,[29],0.119 µg/mL
same,IC50 in TZM-bl assay,[30],> 10 µg/mL
same,IC80 in TZM-bl assay,[30],> 10 µg/mL
same,IC50 in TZM-bl assay,[31],0.008 µg/mL
same,IC80 in TZM-bl assay,[31],0.024 µg/mL
same,IC50 in TZM-bl assay,[32],> 10 µg/mL
same,IC80 in TZM-bl assay,[32],> 10 µg/mL
same,IC50 in TZM-bl assay,[33],0.023 µg/mL
same,IC80 in TZM-bl assay,[33],0.086 µg/mL
same,IC50 in TZM-bl assay,[34],0.075 µg/mL
same,IC80 in TZM-bl assay,[34],> 10 µg/mL
same,IC50 in TZM-bl assay,[35],1.99 µg/mL
same,IC80 in TZM-bl assay,[35],9.76 µg/mL
same,IC50 in TZM-bl assay,[36],0.07 µg/mL
same,IC80 in TZM-bl assay,[36],0.207 µg/mL
same,IC50 in TZM-bl assay,[37],0.047 µg/mL
same,IC80 in TZM-bl assay,[37],0.124 µg/mL
same,IC50 in TZM-bl assay,[38],0.024 µg/mL
same,IC80 in TZM-bl assay,[38],0.061 µg/mL
same,IC50 in TZM-bl assay,[39],0.616 µg/mL
same,IC80 in TZM-bl assay,[39],2.4 µg/mL
